Series [1] deals with K. pneumoniae OqxB (Klebsiella pneumoniae). The experiment in a line: crystal structure; detergent-solubilised (DDM) OqxB; sitting drop, 25 °C, 12% PEG4000, 0.2 M MgCl2, 100 mM ADA pH 6.5.
For series [2] the target is unchanged. Nature of the series: cryo-EM structure; single-particle cryo-EM of AcrB or OqxB reconstituted in detergent-free salipro nanodiscs (saposinA, E. coli total lipids), 20 mM Tris pH 7.5, 150 mM NaCl.
Series [3] deals with the molecule itself. Nature of the series: cryo-EM structure; single-particle cryo-EM of DDM-solubilised AcrB; trimer composition from the classified monomers.
Series [4] deals with the molecule itself. The experiment in a line: crystal structure; DDM-solubilised AcrB variants mixed with DARPins 1:2, excess DARPin removed by SEC (20 mM Tris pH 7.5, 150 mM NaCl, 0.03 % DDM); hanging drop, 18 °C; with 2 mM minocycline or apo.
Series [5] concerns the molecule itself. The experiment in a line: cryo-EM structure; single-particle cryo-EM of AcrB or OqxB reconstituted in detergent-free salipro nanodiscs (saposinA, E. coli total lipids), 20 mM Tris pH 7.5, 150 mM NaCl.

For the molecule K. pneumoniae OqxB (natural protein), the stoichiometry N in series [1] and in series [2] was 3 throughout.

B1: E. coli AcrB V612W (natural protein)
chain: MPNFFIDRPIFAWVIAIIIMLAGGLAILKLPVAQYPTIAPPAVTISASYPGADAKTVQDTVTQVIEQNMNGIDNLMYMSSNSDSTGTVQITLTFESGTDADIAQVQVQNKLQLAMPLLPQEVQQQGVSVEKSSSSFLMVVGVINTDGTMTQEDISDYVAANMKDAISRTSGVGDVQLFGSQYAMRIWMNPNELNKFQLTPVDVITAIKAQNAQVAAGQLGGTPPVKGQQLNASIIAQTRLTSTEEFGKILLKVNQDGSRVLLRDVAKIELGGENYDIIAEFNGQPASGLGIKLATGANALDTAAAIRAELAKMEPFFPSGLKIVYPYDTTPFVKISIHEVVKTLVEAIILVFLVMYLFLQNFRATLIPTIAVPVVLLGTFAVLAAFGFSINTLTMFGMVLAIGLLVDDAIVVVENVERVMAEEGLPPKEATRKSMGQIQGALVGIAMVLSAVFVPMAFFGGSTGAIYRQFSITIVSAMALSVLVALILTPALCATMLKPIAKGDHGEGKKGFFGWFNRMFEKSTHHYTDSVGGILRSTGRYLVLYLIIVVGMAYLFVRLPSSFLPDEDQGVFMTMVQLPAGATQERTQKVLNEVTHYYLTKEKNNVESVFAWNGFGFAGRGQNTGIAFVSLKDWADRPGEENKVEAITMRATRAFSQIKDAMVFAFNLPAIVELGTATGFDFELIDQAGLGHEKLTQARNQLLAEAAKHPDMLTSVRPNGLEDTPQFKIDIDQEKAQALGVSINDINTTLGAAWGGSYVNDFIDRGRVKKVYVMSEAKYRMLPDDIGDWYVRAADGQMVPFSAFSSSRWEYGSPRLERYNGLPSMEILGQAAPGKSTGEAMELMEQLASKLPTGVGYDWTGMSYQERLSGNQAPSLYAISLIVVFLCLAALYESWSIPFSVMLVVPLGVIGALLAATFRGLTNDVYFQVGLLTTIGLSAKNAILIVEFAKDLMDKEGKGLIEATLDAVRMRLRPILMTSLAFILGVMPLVISTGAGSGAQNAVGTGVMGGMVTATVLAIFFVPVFFVVVRRRFSRKNEDIEHSHTVDHH
notes: Homotrimer; source: E. coli C43 (DE3) ∆acrB, purified (Ni-NTA, SEC), DDM-solubilised
For B1, the “stoichiometry N” value in series [3] came out at 3.

B2: E. coli AcrB V612N (natural protein)
chain: MPNFFIDRPIFAWVIAIIIMLAGGLAILKLPVAQYPTIAPPAVTISASYPGADAKTVQDTVTQVIEQNMNGIDNLMYMSSNSDSTGTVQITLTFESGTDADIAQVQVQNKLQLAMPLLPQEVQQQGVSVEKSSSSFLMVVGVINTDGTMTQEDISDYVAANMKDAISRTSGVGDVQLFGSQYAMRIWMNPNELNKFQLTPVDVITAIKAQNAQVAAGQLGGTPPVKGQQLNASIIAQTRLTSTEEFGKILLKVNQDGSRVLLRDVAKIELGGENYDIIAEFNGQPASGLGIKLATGANALDTAAAIRAELAKMEPFFPSGLKIVYPYDTTPFVKISIHEVVKTLVEAIILVFLVMYLFLQNFRATLIPTIAVPVVLLGTFAVLAAFGFSINTLTMFGMVLAIGLLVDDAIVVVENVERVMAEEGLPPKEATRKSMGQIQGALVGIAMVLSAVFVPMAFFGGSTGAIYRQFSITIVSAMALSVLVALILTPALCATMLKPIAKGDHGEGKKGFFGWFNRMFEKSTHHYTDSVGGILRSTGRYLVLYLIIVVGMAYLFVRLPSSFLPDEDQGVFMTMVQLPAGATQERTQKVLNEVTHYYLTKEKNNVESVFANNGFGFAGRGQNTGIAFVSLKDWADRPGEENKVEAITMRATRAFSQIKDAMVFAFNLPAIVELGTATGFDFELIDQAGLGHEKLTQARNQLLAEAAKHPDMLTSVRPNGLEDTPQFKIDIDQEKAQALGVSINDINTTLGAAWGGSYVNDFIDRGRVKKVYVMSEAKYRMLPDDIGDWYVRAADGQMVPFSAFSSSRWEYGSPRLERYNGLPSMEILGQAAPGKSTGEAMELMEQLASKLPTGVGYDWTGMSYQERLSGNQAPSLYAISLIVVFLCLAALYESWSIPFSVMLVVPLGVIGALLAATFRGLTNDVYFQVGLLTTIGLSAKNAILIVEFAKDLMDKEGKGLIEATLDAVRMRLRPILMTSLAFILGVMPLVISTGAGSGAQNAVGTGVMGGMVTATVLAIFFVPVFFVVVRRRFSRKNEDIEHSHTVDHH
notes: as for B1
Turning to B2, the “stoichiometry N” value in series [4] is 3.

B3: E. coli AcrB V612F (natural protein)
chain: MPNFFIDRPIFAWVIAIIIMLAGGLAILKLPVAQYPTIAPPAVTISASYPGADAKTVQDTVTQVIEQNMNGIDNLMYMSSNSDSTGTVQITLTFESGTDADIAQVQVQNKLQLAMPLLPQEVQQQGVSVEKSSSSFLMVVGVINTDGTMTQEDISDYVAANMKDAISRTSGVGDVQLFGSQYAMRIWMNPNELNKFQLTPVDVITAIKAQNAQVAAGQLGGTPPVKGQQLNASIIAQTRLTSTEEFGKILLKVNQDGSRVLLRDVAKIELGGENYDIIAEFNGQPASGLGIKLATGANALDTAAAIRAELAKMEPFFPSGLKIVYPYDTTPFVKISIHEVVKTLVEAIILVFLVMYLFLQNFRATLIPTIAVPVVLLGTFAVLAAFGFSINTLTMFGMVLAIGLLVDDAIVVVENVERVMAEEGLPPKEATRKSMGQIQGALVGIAMVLSAVFVPMAFFGGSTGAIYRQFSITIVSAMALSVLVALILTPALCATMLKPIAKGDHGEGKKGFFGWFNRMFEKSTHHYTDSVGGILRSTGRYLVLYLIIVVGMAYLFVRLPSSFLPDEDQGVFMTMVQLPAGATQERTQKVLNEVTHYYLTKEKNNVESVFAFNGFGFAGRGQNTGIAFVSLKDWADRPGEENKVEAITMRATRAFSQIKDAMVFAFNLPAIVELGTATGFDFELIDQAGLGHEKLTQARNQLLAEAAKHPDMLTSVRPNGLEDTPQFKIDIDQEKAQALGVSINDINTTLGAAWGGSYVNDFIDRGRVKKVYVMSEAKYRMLPDDIGDWYVRAADGQMVPFSAFSSSRWEYGSPRLERYNGLPSMEILGQAAPGKSTGEAMELMEQLASKLPTGVGYDWTGMSYQERLSGNQAPSLYAISLIVVFLCLAALYESWSIPFSVMLVVPLGVIGALLAATFRGLTNDVYFQVGLLTTIGLSAKNAILIVEFAKDLMDKEGKGLIEATLDAVRMRLRPILMTSLAFILGVMPLVISTGAGSGAQNAVGTGVMGGMVTATVLAIFFVPVFFVVVRRRFSRKNEDIEHSHTVDHH
notes: Homotrimer; source: E. coli C43 (DE3) ∆acrB, purified (Ni-NTA, SEC); DDM-solubilised, in cyclohexyl-n-hexyl-β-D-maltoside (apo crystals) or reconstituted in salipro nanodiscs
On to B3, for which the “stoichiometry N” value in series [5] was determined as 3.
